Test results from PMC3520155.

Target: HA-tagged full-length pebble (Pbl) (Drosophila)
Assay: co-IP

Row | Substance | percent reduction in binding against wild-type ICD [%]
1 | Sema-1a ICD[36G/52A] (domain or fragment) | 33
2 | Sema-1a ICD[Δ31–60] (domain or fragment) | 44
